Assay results: PMC9056527, “Aptamer loaded superparamagnetic beads for selective capturing and gentle release of activated protein C”

What was measured:
human α-thrombin (human) = human α-thrombin (human) (UniProt P00734)
[1] = target: T1, activated protein C (APC) (UniProt P04070;P04070 43-197;212-461); assay: pull-down (aptamer-loaded magnetic beads); Ca2+ binding buffer; 10 µg APC; Binding buffer with Ca2+ (composition not in material); elution buffer 10 mM Tris-HCl, 144 mM NaCl, pH 7.4, 5 mM EDTA; bead capture at RT, 30 min; settings: protein: commercial; copies: 1;1
[2] = target: T1, activated protein C (APC); assay: BLI; dissociation in binding buffer (Ca2+); 500 nM APC; Binding buffer with Ca2+ (composition not in material); elution buffer 10 mM Tris-HCl, 144 mM NaCl, pH 7.4, 5 mM EDTA; bead capture at RT, 30 min; settings: protein: commercial; copies: 1;1; label: 3'-TEG-biotin
[3] = target: T1, activated protein C (APC); assay: pull-down (aptamer-loaded magnetic beads); Ca2+ binding buffer; eluted with 5 mM EDTA; Binding buffer with Ca2+ (composition not in material); elution buffer 10 mM Tris-HCl, 144 mM NaCl, pH 7.4, 5 mM EDTA; bead capture at RT, 30 min; settings: protein: commercial; copies: 1;1
[4] = target: protein C (PC, zymogen, Ceprotin) (UniProt P04070;P04070 43-197;200-461); assay: pull-down (aptamer-loaded magnetic beads); PC activation mixture; PC in eluate below <0.2-0.24 µg/ml; Binding buffer with Ca2+ (composition not in material); elution buffer 10 mM Tris-HCl, 144 mM NaCl, pH 7.4, 5 mM EDTA; bead capture at RT, 30 min; settings: protein: commercial; copies: 1;1
protein C (PC, zymogen, Ceprotin), sequence (P04070 43-197, chain 1 of 2): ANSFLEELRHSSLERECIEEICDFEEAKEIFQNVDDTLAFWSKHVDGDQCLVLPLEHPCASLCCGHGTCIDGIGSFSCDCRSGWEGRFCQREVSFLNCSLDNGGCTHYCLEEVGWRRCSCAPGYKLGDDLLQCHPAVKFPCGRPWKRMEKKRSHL
protein C (PC, zymogen, Ceprotin), sequence (P04070 200-461, chain 2 of 2): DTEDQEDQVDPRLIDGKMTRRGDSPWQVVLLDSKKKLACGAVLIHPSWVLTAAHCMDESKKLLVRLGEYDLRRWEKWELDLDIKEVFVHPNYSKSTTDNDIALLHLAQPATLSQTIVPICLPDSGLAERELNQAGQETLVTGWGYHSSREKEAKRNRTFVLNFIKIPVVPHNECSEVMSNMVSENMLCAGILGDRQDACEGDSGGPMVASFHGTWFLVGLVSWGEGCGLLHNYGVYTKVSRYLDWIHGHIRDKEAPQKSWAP

T1 sequence (P04070 43-197, chain 1 of 2): as the sequence (P04070 43-197, chain 1 of 2) above
T1 sequence (P04070 212-461, chain 2 of 2): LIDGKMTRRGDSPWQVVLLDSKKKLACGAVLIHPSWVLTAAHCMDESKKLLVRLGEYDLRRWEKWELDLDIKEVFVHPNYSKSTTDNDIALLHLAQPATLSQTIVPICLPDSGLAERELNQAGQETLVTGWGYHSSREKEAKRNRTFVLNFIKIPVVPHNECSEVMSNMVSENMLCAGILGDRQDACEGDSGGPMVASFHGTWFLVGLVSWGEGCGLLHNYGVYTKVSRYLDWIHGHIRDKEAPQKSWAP

For “recombinant hirudin (Refludan, Bayer Health Care) (natural protein)”, the IC50 of hirudin for thrombin-catalysed hydrolysis of the fluorogenic substrate Boc-Asp(OBzl)-Pro-Arg-AMC; 2.5 µg/ml (68 nM) thrombin, hirudin 14 nM to 14 µM, 30 min in activation buffer (human α-thrombin (human)) was 170 nM, the IC50 of hirudin for thrombin-catalysed hydrolysis of the fluorogenic substrate Boc-Asp(OBzl)-Pro-Arg-AMC; 12.5 µg/ml (341 nM) thrombin, hirudin 14 nM to 14 µM, 30 min in activation buffer (human α-thrombin (human)) was 1960 nM and the IC50 of hirudin for thrombin-catalysed hydrolysis of the fluorogenic substrate Boc-Asp(OBzl)-Pro-Arg-AMC; 20 µg/ml (545 nM) thrombin, hirudin 14 nM to 14 µM, 30 min in activation buffer (human α-thrombin (human)) was 2260 nM.

B1: AD02-52 (antisense control) (ssDNA)
DNA: GCCTCCTAAGAGCCCCATCCGGGATAAGTCGAGTACAGCTCAGTTAGGAGGC
modifications: 3'-HEG-amino
B1: no binding [1].

B2: HS02-52G (ssDNA)
DNA: GCCTCCTAACTGAGCTGTACTCGACTTATCCCGGATGGGGCTCTTAGGAGGC
B2: binds [2].

B3: HS02-52G-NH2 (ssDNA)
DNA: GCCTCCTAACTGAGCTGTACTCGACTTATCCCGGATGGGGCTCTTAGGAGGC
modifications: 3'-HEG-amino
B3: binds [3]; no binding [4].
